The target in assay [1] is T1, 人PD-L1-His重组蛋白 (human, UniProt Q9NZQ7 19-238).
T1 construct: range 19-238; also called 人PD-L1胞外区结构域重组蛋白; 重组人PD-L1; not shown: His tag
The assay is described as follows: BLI (Fortebio Octet QKe), antibody captured on AHC probe, human PD-L1-His 100 nM, 1:1 Langmuir fit.

The target in assay [2] is T1, 人PD-L1-His重组蛋白. The experiment in a line: BLI (Fortebio Octet QKe), antibody captured on AHC probe, human PD-L1-His 50 nM and 20 nM, 1:1 Langmuir fit.
The target in assay [3] is T2, CTLA4-His (human, UniProt P16410 36-162).
T2 construct: Bought protein; also called Cat:11159-H08H; not shown: His tag
T2 sequence (looked up): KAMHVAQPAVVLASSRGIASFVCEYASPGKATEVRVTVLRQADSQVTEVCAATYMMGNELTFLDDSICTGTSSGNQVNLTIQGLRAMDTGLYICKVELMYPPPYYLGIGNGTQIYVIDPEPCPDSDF
The experiment in a line: ELISA; protein coated at 2 ug/mL. For orientation: ELISA stands for enzyme-linked immunosorbent assay.

In assay [4] the target is T3, 重组人CD28 (human, UniProt P10747 19-152).
T3 construct: Bought protein; also called Cat:11524-HCCH
T3 sequence (P10747 19-152 limits assumed): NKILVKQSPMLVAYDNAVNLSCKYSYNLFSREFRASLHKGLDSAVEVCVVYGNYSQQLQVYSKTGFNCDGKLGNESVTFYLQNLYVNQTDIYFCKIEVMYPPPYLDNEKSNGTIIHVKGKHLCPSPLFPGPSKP
The assay is described as follows: ELISA; protein coated at 2 ug/mL.

The target in assay [5] is T4, B7H3-His (human, UniProt Q5ZPR3 29-239).
T4 construct: range 29-239; not shown: His tag
T4 sequence (looked up): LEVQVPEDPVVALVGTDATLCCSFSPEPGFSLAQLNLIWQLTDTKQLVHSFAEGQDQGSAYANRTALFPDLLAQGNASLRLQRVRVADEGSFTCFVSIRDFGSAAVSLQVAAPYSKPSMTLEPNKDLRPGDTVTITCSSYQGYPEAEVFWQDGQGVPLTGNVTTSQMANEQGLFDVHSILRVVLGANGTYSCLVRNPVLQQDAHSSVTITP
The experiment in a line: ELISA; protein coated at 2 ug/mL.

Assay [6] has as its target T5, PD-L2-hFc (human, UniProt Q9BQ51 20-220).
T5 construct: range 20-220; not shown: human Fc (hFc)
T5 sequence (looked up): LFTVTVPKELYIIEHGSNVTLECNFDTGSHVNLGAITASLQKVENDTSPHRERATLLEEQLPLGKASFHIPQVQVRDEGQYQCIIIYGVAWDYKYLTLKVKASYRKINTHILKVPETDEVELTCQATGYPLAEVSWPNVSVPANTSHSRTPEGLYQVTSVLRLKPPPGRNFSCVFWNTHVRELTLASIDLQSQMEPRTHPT
The experiment in a line: ELISA; protein coated at 2 ug/mL.

Assay [7] addresses T6, 人PD-L1全长(细胞表面表达) (human, UniProt Q9NZQ7 19-290).
T6 construct: whole, on cells; the cell line is named under assay or readout
The experiment in a line: flow cytometry (MFI) on CHO-PD-L1-CD3L cells, antibody titrated from 30 ug/mL. On the technique in general: Flow cytometry measures light scatter and fluorescence of single cells or particles in a stream.

The target of assay [8] is T7, 人PD-L1/mFc重组蛋白 (human, UniProt Q9NZQ7 19-238).
T7 construct: range 19-238; not shown: mouse Fc (mFc)
T7 sequence (Q9NZQ7 19-238 limits assumed): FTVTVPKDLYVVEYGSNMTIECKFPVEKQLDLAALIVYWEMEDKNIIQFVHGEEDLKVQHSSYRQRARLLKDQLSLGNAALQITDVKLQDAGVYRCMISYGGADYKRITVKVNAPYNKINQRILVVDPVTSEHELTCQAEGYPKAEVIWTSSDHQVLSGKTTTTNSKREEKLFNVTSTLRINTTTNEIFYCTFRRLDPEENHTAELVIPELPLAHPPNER
The experiment in a line: competition ELISA; PD-1-hFc coated, PD-L1-mFc 1 ug/mL, antibody titrated from 4.5 ug/mL.

The target of assay [9] is T1, 人PD-L1-His重组蛋白. The assay is described as follows: BLI (Fortebio Octet QKe), antibody captured on AHC probe, human PD-L1-His 60 nM, 1:1 Langmuir fit. For orientation: Biolayer interferometry detects binding as a change in optical thickness at a sensor tip.
Assay [10] concerns the target T6, 人PD-L1全长(细胞表面表达). The experiment in a line: cell-based or functional assay.

Substitutions are numbered along the chain they refer to.

Usually Kd stands for a measure of binding affinity in units of concentration. A low value points to tighter binding. For orientation: EC50 means the concentration that produces a half-maximal response. Lower therefore signals greater potency. The term IC50 denotes the concentration that inhibits the measured activity by half. High values mean a need for much substance, low ones inhibition by little substance.

T1 sequence (Q9NZQ7 19-238 limits assumed): as above

B1: 嵌合抗体Ch182 (antibody, human IgG1, V domains shown)
VH: EVQLQQSGAELVKPGASVKLSCTVSGFNIKDIYMHWLKQRPEQGLEWIGRIDPANGNTKYDPKFQDKATMIADTSSNTAYLQLSSLTSEDTAVYYCASGQLGPLGFDYWGQGTTLTVSS
VL: DIQMTQTTSSLSASLGDRVTISCRASQDISNYLNWYQQKPDGTVKLLIYYTSRLHSGVPSRFSGSGSGTDYSLTISNLEQEDIATYFCQQGNTLPYTFGGGTKLEIK
On to B1, for which the Kd in assay [1] is 2.14 nM; in [2] it was approximately 2.02 nM.

B2: 182鼠抗体 (antibody, V domains shown)
VH: B1 VH
VL: B1 VL
notes: Tested as hybridoma supernatant or as purified mouse antibody; also called m182
On to B2, for which the binding result in assay [3], in [4], in assay [5] and in assay [6] was “no binding (tested: 1ug/ml)” in each case.

B3: H182-MUT4 (antibody, human IgG1, kappa, V domains shown)
VH: EVQLVQSGAEVKKPGATVKISCKVSGFNIKDIYMHWVQQAPGKGLEWMGRIDPANANTKYDPKFQDRVTITADTSTNTAYMELSSLRSEDTAVYYCASGQLGPLGFDYWGQGTTVTVSS
VL: DIQMTQSPSSLSASVGDRVTITCRASQDISNYLNWYQQKPGKAPKLLLYYTSRLHSGVPSRFSGSGSGTDYTLTISSLQPEDFATYFCQQGAGRPYTFGGGTKVEIKR
notes: also called h182-LCDR3-4+h182-HCDR2-3
In assay [7], B3 gave an EC50 of 0.658 nM. The same molecule gave an IC50 in assay [8] of 6.24 nM. For the same molecule, the Kd in [9] is 0.465 nM. Also, in assay [10], the “ADCC EC50 (MDA-MB-231 target cells, NK92 effector cells, calcein release)” value is 0.96 ng/mL.

B4: 182-2 (antibody, V domains shown)
VH: B3 VH with A56G
VL: DIQMTQTTSSLSASLGDRVTISCRASQDISNYLNWYQQKPDGTVKLLIYYTSRLHSGVPSRFSGSGSGTDYSLTISNLEQEDIATYFCQQGNTLPYTFGGGTKLEIKR
With B4, the Kd in [1] came out at 1.93 nM.

B5: h182 (antibody, V domains shown)
VH: B3 VH with A56G
VL: B3 VL with A92N, G93T, R94L
As to B5, the Kd in [1] is 3.64 nM.

B6: 182-7 (antibody, V domains shown)
VH: B3 VH with A56G, N77D, S98T
VL: B3 VL with A92N, G93T, R94L
Turning to B6, in assay [1], the Kd amounted to 5.68 nM.

B7: 182-5 (antibody, V domains shown)
VH: B3 VH with A56G
VL: B3 VL with F87Y, A92N, G93T, R94L
B7 gave a Kd in assay [1] of 3.43 nM.

B8: 182-4 (antibody, V domains shown)
VH: B3 VH with A56G, N77D, S98T
VL: B3 VL with F87Y, A92N, G93T, R94L
Molecule B8 returned a Kd in [1] of 8.19 nM.

B9: 182-1 (antibody, V domains shown)
VH: B3 VH with A56G, N77D, S98T
VL: B4 VL
B9 showed a Kd in [1] of 5.82 nM.

B10: 182-3 (antibody, human IgG1, V domains shown)
VH: B1 VH
VL: B3 VL with F87Y, A92N, G93T, R94L
notes: also called h182L1 + Ch182H
For B10, binding in assay [1] was put at a Kd of 4.77 nM.

B11: 182-6 (antibody, human IgG1, V domains shown)
VH: B1 VH
VL: B3 VL with A92N, G93T, R94L
notes: also called h182L2 + Ch182H
In turn, B11 came in with a Kd in assay [1] of 4.64 nM.

Source of the values: patent CN113121686A (MABWELL SHANGHAI BIOTECHNOLOGY CO LTD, dated 2021).
